Laboratory results as given in patent publication US20190071514A1, “ANTI-CD39 ANTIBODIES” (INNATE PHARMA, priority 2016, published 2019).

Test: Thermal shift stability assay (TSSA), aggregation temperature
Type: physicochemical
Parameters: unit not given here
Conditions: for Tagg run1 / Tagg run2 / Tagg run3: mAb2 VH/Vk, human IgG1 Fc mutation formats, temperature of aggregation; for Tagg Mean: mean of run1-run3
Experimental: The resulting antibodies were tested for stability in the following reference formulation at a concentration of approximatively 7 mg/mL: pH 6.0; histidine buffer (10 mM); sucrose (200 mM); NaCl (50 mM); Polysorbate 80 (PS80) (0.2 g/L). […] So for this study the concentration is set at 0.2 g/L. The stability of the formulations was monitored in two storage conditions (at +5° C.±3° C. and at +40±3° C. For each study, 3 times point were performed: TO, T15D (15 days) and T1M (1 month). A freeze thaw (F/T) and a thermal shift stability assay (TSSA) were conducted for the format comparison. To perform F/T cycles, the samples were frozen at least 2 hours at −20° C. and thawed at least 1 hour at room temperature, the F/T cycle is repeated three times and samples are tested 24 h after the last Freeze/Thaw cycle. At each time point, the following tests were performed: • Particulate Matter (MFI) • Visual Inspection (Appearance) • Impurities (SE-HPLC) • Turbidity (400 nm) • Protein Concentration (280 nm) (performed with Nanodrop, Thermo Fisher Scientific Inc.)
These aromatic residues confer a relatively high predicted hydrophobicity to the antibody. However, the aromatic residues in these antibodies are believed to be important for antibody function and can probably not be replaced by a non-aromatic residue without a reduction or loss of activity. […] Aggregation temperature is correlated with the intrinsic stability. The higher the TAgg, the higher the stability of the protein. […] The stability of each of the Fc domain of human IgG1 isotype comprises an amino acid substitution at Kabat residue(s) 234, 235, 237, 330 and/or 331 (L234A/L235E/P331S substitutions, L234F/L235E/P331S substitutions, L234A/L235E/G237A/P331S substitutions, and L234A/L235E/G237A/A330S/P331S substitutions) improved the antibody, as shown in the table below. Such mutations can therefore enhance the pharmacological properties and/or activity of the antibody.

Molecule | Tagg run1 | Tagg run2 | Tagg run3 | Tagg Mean
L234F/L235E/P331S: mAb2 variable regions as human IgG1 with L234F/L235E/P331S; heavy chain SEQ ID NO: 26, light chain SEQ ID NO: 9 (antibody, Chimeric) heavy: QVQLVQSGSELKKPGASVKVSCKASGYTFTHYGMNWVRQAPGQGLKWMGWINTYTGEPTYADDFKGRFVFSLDTSVSTAYLQISSLKAEDTAVYYCARRRYEGNYVFYYFDYWGQGTTVTVSSASTKGPSVFPLAPSSKSTSGGTAALGCLVKDYFPEPVTVSWNSGALTSGVHTFPAVLQSSGLYSLSSVVTVPSSSLGTQTYICNVNHKPSNTKVDKRVEPKSCDKTHTCPPCPAPEFEGGPSVFLFPPKPKDTLMISRTPEVTCVVVDVSHEDPEVKFNWYVDGVEVHNAKTKPREEQYNSTYRVVSVLTVLHQDWLNGKEYKCKVSNKALPASIEKTISKAKGQPREPQVYTLPPSREEMTKNQVSLTCLVKGFYPSDIAVEWESNGQPENNYKTTPPVLDSDGSFFLYSKLTVDKSRWQQGNVFSCSVMHEALHNHYTQKSLSLSPGK VL: DIQMTQSPSSLSASVGDRVTITCRASENIYSYFSWYQQKPGKAPKLLIYTAKTLAEGVPSRFSGSGSGTDFTLTISSLQPEDFATYYCQHHYVTPYTFGGGTKVEIK | 67.65 | 67.87 | 68.34 | 68.0
L234A/L235E/G237A/P331S: mAb2 variable regions as human IgG1 with L234A/L235E/G237A/P331S; heavy chain SEQ ID NO: 29, light chain SEQ ID NO: 9 (antibody, Chimeric) heavy: QVQLVQSGSELKKPGASVKVSCKASGYTFTHYGMNWVRQAPGQGLKWMGWINTYTGEPTYADDFKGRFVFSLDTSVSTAYLQISSLKAEDTAVYYCARRRYEGNYVFYYFDYWGQGTTVTVSSASTKGPSVFPLAPSSKSTSGGTAALGCLVKDYFPEPVTVSWNSGALTSGVHTFPAVLQSSGLYSLSSVVTVPSSSLGTQTYICNVNHKPSNTKVDKRVEPKSCDKTHTCPPCPAPEAEGAPSVFLFPPKPKDTLMISRTPEVTCVVVDVSHEDPEVKFNWYVDGVEVHNAKTKPREEQYNSTYRVVSVLTVLHQDWLNGKEYKCKVSNKALPASIEKTISKAKGQPREPQVYTLPPSREEMTKNQVSLTCLVKGFYPSDIAVEWESNGQPENNYKTTPPVLDSDGSFFLYSKLTVDKSRWQQGNVFSCSVMHEALHNHYTQKSLSLSPGK VL: DIQMTQSPSSLSASVGDRVTITCRASENIYSYFSWYQQKPGKAPKLLIYTAKTLAEGVPSRFSGSGSGTDFTLTISSLQPEDFATYYCQHHYVTPYTFGGGTKVEIK | 66.08 | 66.55 | 66.29 | 66.3
L234A/L235E/P331S: mAb2 variable regions as human IgG1 with L234A/L235E/P331S; heavy chain SEQ ID NO: 27, light chain SEQ ID NO: 9 (antibody, Chimeric) heavy: QVQLVQSGSELKKPGASVKVSCKASGYTFTHYGMNWVRQAPGQGLKWMGWINTYTGEPTYADDFKGRFVFSLDTSVSTAYLQISSLKAEDTAVYYCARRRYEGNYVFYYFDYWGQGTTVTVSSASTKGPSVFPLAPSSKSTSGGTAALGCLVKDYFPEPVTVSWNSGALTSGVHTFPAVLQSSGLYSLSSVVTVPSSSLGTQTYICNVNHKPSNTKVDKRVEPKSCDKTHTCPPCPAPEAEGGPSVFLFPPKPKDTLMISRTPEVTCVVVDVSHEDPEVKFNWYVDGVEVHNAKTKPREEQYNSTYRVVSVLTVLHQDWLNGKEYKCKVSNKALPASIEKTISKAKGQPREPQVYTLPPSREEMTKNQVSLTCLVKGFYPSDIAVEWESNGQPENNYKTTPPVLDSDGSFFLYSKLTVDKSRWQQGNVFSCSVMHEALHNHYTQKSLSLSPGK VL: DIQMTQSPSSLSASVGDRVTITCRASENIYSYFSWYQQKPGKAPKLLIYTAKTLAEGVPSRFSGSGSGTDFTLTISSLQPEDFATYYCQHHYVTPYTFGGGTKVEIK | 66.50 | 66.91 | 67.77 | 67.1
L234A/L235E/G237A/A330S/P331S: mAb2 variable regions as human IgG1 with L234A/L235E/G237A/A330S/P331S; heavy chain SEQ ID NO: 28, light chain SEQ ID NO: 9 (antibody, Chimeric) heavy: QVQLVQSGSELKKPGASVKVSCKASGYTFTHYGMNWVRQAPGQGLKWMGWINTYTGEPTYADDFKGRFVFSLDTSVSTAYLQISSLKAEDTAVYYCARRRYEGNYVFYYFDYWGQGTTVTVSSASTKGPSVFPLAPSSKSTSGGTAALGCLVKDYFPEPVTVSWNSGALTSGVHTFPAVLQSSGLYSLSSVVTVPSSSLGTQTYICNVNHKPSNTKVDKRVEPKSCDKTHTCPPCPAPEAEGAPSVFLFPPKPKDTLMISRTPEVTCVVVDVSHEDPEVKFNWYVDGVEVHNAKTKPREEQYNSTYRVVSVLTVLHQDWLNGKEYKCKVSNKALPSSIEKTISKAKGQPREPQVYTLPPSREEMTKNQVSLTCLVKGFYPSDIAVEWESNGQPENNYKTTPPVLDSDGSFFLYSKLTVDKSRWQQGNVFSCSVMHEALHNHYTQKSLSLSPGK VL: DIQMTQSPSSLSASVGDRVTITCRASENIYSYFSWYQQKPGKAPKLLIYTAKTLAEGVPSRFSGSGSGTDFTLTISSLQPEDFATYYCQHHYVTPYTFGGGTKVEIK | 66.35 | 67.58 | 67.07 | 67.0
